Measured values reported in the supplement of paper PMC9170038.

System: MS2 coat protein
Assay: apparent KD of MS2 coat protein; designed switch direction (-1 OFF switch, 1 ON switch): -1; higher = weaker reporter binding
Method in brief: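 SNAP-549-labelled MS2 coat protein was titrated, doubling from 0.7 or 1.5 nM to 3 µM, over designed RNA switches transcribed on Illumina chips by stalled E. coli RNA polymerase. Runs were done without input, with 200 uM small-molecule ligand, or with an oligonucleotide input. Apparent KD is the per-design median over clusters of curve-fitted normalised fluorescence.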

[1] = Eterna round: R95, input ligand: FMN 200 uM
[2] = Eterna round: R95, input ligand: microRNA oligo, concentration not stated
[3] = Eterna round: R95, input ligand: none
[4] = input ligand: microRNA oligo, concentration not stated

| Sequence | apparent KD of MS2 coat protein [1] | apparent KD of MS2 coat protein [2] | apparent KD of MS2 coat protein [3] | apparent KD of MS2 coat protein (input ligand: FMN 200 uM) | apparent KD of MS2 coat protein (input ligand: none) | apparent KD of MS2 coat protein [4] |
| --- | --- | --- | --- | --- | --- | --- |
| AAAAAACAUGAGGAUCACCCAUGUCAGGAUAUCCGCGAAGGAAAGAAAAAAAAAAAAGGGAGAAGGGACAAAAA [April's Ex-date #4] (puzzle: Exclusion 1) | 49.5 nM | 52.8 nM | 28.5 nM | – | – | – |
| GAUUAAUGCAAGGAUAUGCUAUUAAUUUAUUUUGCAGAAGGUGCAACAUGAGGAUCACCCAUGUUGGAGGGUAU [JR_E6_Sub027] (puzzle: Exclusion 6) | – | 18.8 nM | – | – | – | – |
| CCACUGUCAGGAUAUCGUGCAUAACGUUUACAUUAUAUGUGCGAGAAGGGACAUGAGGAUCACCCAUGUAAACG [Omei Ex4 A28PK1] (Eterna round: R97, puzzle: Exclusion 4) | – | – | – | 604 nM | 566 nM | – |
| AAUUAAUAUCAGGAUAUGACGUGCCUCGGCACGUCAGAAGGGAUGACAUGAGGAUCACCCAUGUGAUCAAUUAA [E6/1-A2] (Eterna round: R97, puzzle: Exclusion 6) | – | – | – | 153 nM | 28.7 nM | – |
| AGAAGUAGUACCCGAUCCUACAUGAGGAUCACCCAUGUAGCUAGACGUGCACGCGAUGCUCGUCAGACUACCAGAUG [salish99_TOv1_r3_032] (puzzle: Sensor v3, turn-off variant 1) | 153 nM | 144 nM | 189 nM | – | – | – |
| UCCGGACAUGAGGAUCACCCAUGUGAGGAUAUUGUCGACACGACUGAAAGGAUCACGGCGAGAAGGCGCUUGGA [Eternabot (L2) Solution 48] (Eterna round: R97, puzzle: Exclusion 1) | – | – | – | 25.7 nM | 21.6 nM | – |
| AAAUAGCUAGAGGAUAUCGGAUAGGAUUUACUACGAGAAGGUUAGACAUGAGGAUCACCCAUGUUGUGUUGGGA [EX6 #19] (Eterna round: R97, puzzle: Exclusion 6) | – | – | – | 59.6 nM | 67.9 nM | – |
| UCAUAACAUGAGGAUCACCCAUGUGAGGAUAUGAUACUAUGUACUUCGGUACAUAGUAUCAGAAGGCACAUGCU [Brourd's Ex1-3: 11 (nt 72 G)] (puzzle: Exclusion 1) | 34.8 nM | 127 nM | 127 nM | – | – | – |
| AGUAGGUCUACCUUGGUGGAUCUGCAUUUUUGCAGGUGUACAUGAGGAUCACCCAUGUCCUCAUUUGCUCGUCUUAU [JL turnoff v2 99.30] (Eterna round: R96, puzzle: Sensor v3, turn-off variant 2) | – | – | – | 555 nM | 508 nM | 599 nM |
| AGCCUAGCAGGAUAUGCCCGGGAUAACAUGAGGAUCACCCAUGUGACCGAUUGAUGUCCUGCAGAAGGGCUAGGGA [JL-EX5-4.00 ViennaUCT mod] (Eterna round: R97, puzzle: Exclusion 5) | – | – | – | 20.9 nM | 18.5 nM | – |
| UUUUAACAUGAGGAUCACCCAUGUGAGGAUAUCGAAAUUUAUAUUUAUAUUAAUAAUACGAGAAGGCACAUUUU [JMF 78] (puzzle: Exclusion 1) | – | 57 nM | – | – | – | – |
| AUUGAUAGCACAGGAUAUUGAGAUUUGAAUUGACAAGAAGGGUGUACAUGAGGAUCACCCAUGUAAUGGCUGCCUCGUUGAUUA [JR_ExcNG1_Sub005] (Eterna round: R96, puzzle: Exclusion NG 1) | – | – | – | – | – | 45.6 nM |
| GGUGGACAUGAGGAUCACCCAUGUGAGGAUAUCGGCUAUCUACUCGCUGUCGGUUGCUCGAGAAGGCACAUUGU [Exclusion 1 V93] (puzzle: Exclusion 1) | – | 151 nM | – | – | – | – |
| GGGUGUGAAGGAUAUACAUGAGGAUCACCCAUGUGAGAGGAGGAGGUUGAGGAGGUUGGUAGAAGGUCAGGAGG [JR_Exclusion3_Sub011] (puzzle: Exclusion 3) | – | 120 nM | – | – | – | – |
| AGAUGCUCAAGUCGACAUGAGGAUCACCCAUGUACAGUUAAUGAGGAUAUCCGAGAUAAAUAAUAGGAGAAGGCGUGAACAUGA [Ex NG3 #8] (Eterna round: R96, puzzle: Exclusion NG 3) | – | – | – | 72.4 nM | 94.1 nM | 50.6 nM |
| UUCAGACAUGAGGAUCACCCAUGUGAGGAUAUGAUGCGAUCGUCGAAAGACGAUAGCAUCAGAAGGCACAUAUG [Fiskers Ex 1 - 17] (puzzle: Exclusion 1) | – | 153 nM | – | – | – | – |
| AGGAAACAUGAGGAUCACCCAUGUGAGGAUAUGAAAAAGAAAAGAAAAGAAAGAAGAAUCAGAAGGCACAAAGG [Mat - Mod of Hog D1] (puzzle: Exclusion 1) | 52.9 nM | 32 nM | 45.9 nM | – | – | – |
| CGAUGCUCGUGGCCACAUGAGGAUCACCCAUGUCGAGUUAGCGAGGAUAUCGGUAGCACAUAUCACGAGAAGGCGCGAACCUGA [Ex NG3 #29] (Eterna round: R96, puzzle: Exclusion NG 3) | – | – | – | 32.3 nM | 12 nM | 10.9 nM |

| Sequence | apparent KD of MS2 coat protein [1] | apparent KD of MS2 coat protein [2] | apparent KD of MS2 coat protein [3] | apparent KD of MS2 coat protein (input ligand: FMN 200 uM) | apparent KD of MS2 coat protein (input ligand: none) | apparent KD of MS2 coat protein [4] |
| --- | --- | --- | --- | --- | --- | --- |
| AGCUAGAUAGGAUAUGCCCGAGAUAACAUGAGGAUCACCCAUGUGACCGAAUCUAAUCUAGCAGAAGGGUUUAGGA [Mod of ViennaUCT 16 - Jieux - Exclusion 5] (Eterna round: R97, puzzle: Exclusion 5) | – | – | – | 15.4 nM | 15.1 nM | – |
| CAGUACUGAGGAUAUACAUGAGGAUCACCCAUGUGAAAAAGCUACGAAAGUAGCAAAUGUAGAAGGCAGUACUG [Ex3: 806] (Eterna round: R96, puzzle: Exclusion 3) | – | – | – | – | – | 29.9 nM |
| GCAAGCUUUUUCAAUAACAACAUGAGGAUCACCCAUGUUUAAGCUAUUACUUUUGGGCUCUUUAGUGCUAGUCUUAU [JR_STOV1_Sub037] (Eterna round: R97, puzzle: Sensor, turn-off variant 1) | – | – | – | 19.1 nM | 17.7 nM | – |
| GUAAUUAAUGUAGGAUAUGCAAGGCGAAACAUGAGAGAAGGCCAUGUGGAUCACCCAUGUAAUGCGGUCUGCGUACAGAUCGCU [salish99_ExNG1_r4_003] (Eterna round: R96, puzzle: Exclusion NG 1) | – | – | – | 38 nM | 65.5 nM | 16.1 nM |
| GAUGUGGGUUUUCAGAGUAACAUGAGGAUCACCCAUGUAGAAGUUGAAGGUAUCAAGCGAAUGGCUCGUCAUAUGUG [JR_SV3TOV1_Sub050] (puzzle: Sensor v3, turn-off variant 1) | 161 nM | 239 nM | 322 nM | – | – | – |
| GGUACUAACACGAGAGUGUUAGUACUAUAAGCUUGUGUUACAUGAGGAUCACCCAUGUCCUCAUAAGCUCGUCUUGA [Mat - Sensor v3 - Turn-off var 2 - D90] (puzzle: Sensor v3, turn-off variant 2) | 33 nM | 974 nM | 36.2 nM | – | – | – |
| AUAAGCUUUGAUAUCCUUAACAUGAGGAUCACCCAUGUUCGUCUUAUGAUGGUCUGAUCCCUGAGGAUCGGACCGUU [JL-sv1-2.06 Brourd Mod] (puzzle: Sensor v3, turn-off variant 1) | 34.4 nM | 88.4 nM | 33.1 nM | – | – | – |
| GUCAGCUCGUGAGGAUAUACAUGAUAGAUCGAUUAAUUAAUUAAUUUAACAUGAGGAUCACCCAUGUAGAAGGCACGAGCUGAU [ENG2/1-A2] (Eterna round: R96, puzzle: Exclusion NG 2) | – | – | – | – | – | 35.8 nM |
| GAAAAUGUGGAGGAUAUCGACUUCGAAAGAAGUCGAGAAGGCCACACAUGAGGAUCACCCAUGUGUUCCUUCAA [Omei Ex6 H2] (Eterna round: R97, puzzle: Exclusion 6) | – | – | – | 569 nM | 52.2 nM | – |
| GCUGGGUCAGGAUAUACAGGGUCGAAAGAUCUGUGAUACCUACAUGAGGAUCACCCAUGUAGAAGGGACUGGGC [ChP 11-04-2015 #10] (puzzle: Exclusion 2) | – | 14.2 nM | – | – | – | – |
| AUGUGACAUGAGGAUCACCCAUGUGAGGAUAUCAUGCUUCGUAGUAAACUACGAAGUGUGAGAAGGCACAUAAC [Omei Ex1 E7] (Eterna round: R97, puzzle: Exclusion 1) | – | – | – | 357 nM | 80.2 nM | – |
| AAGAGGUCAGGAUAUACGGAGAGAGGGAGUUGGUUAGGGUAACAUGAGGAUCACCCAUGUAGAAGGGACUAAGA [JR_Exclu2_Sub079] (puzzle: Exclusion 2) | 23.4 nM | 23.1 nM | 25.1 nM | – | – | – |
| AAUAAGUGAGGAUAUACUAAAAUAUGAAUAAAAUAAAUAAAACAUGAGGAUCACCCAUGUAGAAGGCACAAUAA [JMF's Not so obvious solution 5] (puzzle: Exclusion 2) | 22.6 nM | 23.9 nM | 22.2 nM | – | – | – |
| AGCUGUGGCCGAGGAUAUCACAUGAGGAUCACCCAUGUAUAUGAUUAGGCCUGGUAACAGGCUCGUGAGAAGGCGGUCUCAGCA [Eli eng2 - 012] (Eterna round: R96, puzzle: Exclusion NG 2) | – | – | – | 28.4 nM | 31.3 nM | 19.5 nM |
| CAUUAUUAUCGAGGAUAUCCUAUUGUAAUUCUGGGAGAAGGCGGACUCAACAUGAGGAUCACCCAUGUAAGACGGGUACUAGAG [Ex NG1 #23] (Eterna round: R96, puzzle: Exclusion NG 1) | – | – | – | 85.1 nM | 74.8 nM | 49.3 nM |
| GUCGUGCGGCAGUGCUGUACGAGUACAUGAGGAUCACCCAUGUAGGAUAUGGUUCGUUUUGCGUGCUAGAAGGGCGUGCGUUUA [Excl-NG3-LRO19] (Eterna round: R96, puzzle: Exclusion NG 3) | – | – | – | 18.4 nM | 21.2 nM | 18.2 nM |
| UGAUCUUUUGUUAGGAUAUGCUGGGUUUUUUCUCAGCAGAAGGGACAUGAGGAUCACCCAUGUUUUGUCAUAAA [Magic-07] (puzzle: Brourd's mod of Exclusion 4) | – | 20.3 nM | – | – | – | – |
